Laboratory results taken from US20190194358A1 (ARIZONA BOARD OF REGENTS A BODY CORPORATE OF THE STATE OF …, published 2019).
Read-outs that look alike come from different tables or passages of the source. Blank lines part the entries; values can stand above or below the binder they belong to.

What was measured:
Gal80 = biological target: T1, Gal80 (UniProt P04387 1-435, limits assumed); assay: light-directed peptide array, 25 µM labelled GAL80 with 1 mg/mL E. coli lysate; relative to template BP2;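 note: array read-out by fluorescence scanning, library of 10,000 peptides varied at four positions with ten residue choices, each feature present in triplicate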
T1 construct: Cy3/Cy5 labelled on arrays, immobilised for SPR and ELISA
T1 sequence (looked up): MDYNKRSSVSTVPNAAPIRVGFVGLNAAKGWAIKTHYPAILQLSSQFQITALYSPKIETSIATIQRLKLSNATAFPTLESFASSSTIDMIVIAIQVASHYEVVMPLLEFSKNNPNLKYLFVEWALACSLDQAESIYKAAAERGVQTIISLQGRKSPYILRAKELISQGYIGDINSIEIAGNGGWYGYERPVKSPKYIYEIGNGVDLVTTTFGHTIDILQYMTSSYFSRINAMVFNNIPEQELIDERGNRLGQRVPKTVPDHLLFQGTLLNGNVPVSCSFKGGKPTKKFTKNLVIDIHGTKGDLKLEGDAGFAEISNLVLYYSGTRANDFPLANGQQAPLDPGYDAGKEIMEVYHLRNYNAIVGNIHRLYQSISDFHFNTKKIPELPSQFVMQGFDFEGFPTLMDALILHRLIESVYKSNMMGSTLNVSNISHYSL
Description: The chemically diverse set of 10 amino acids {I,D,W,L,E,G,T,S,K,R} were selected as the amino acids to substitute into the four variable positions for a total of 10,000 unique variant peptides. Three replicates were included in the array to produce a total of 30,000 array features. […] The resulting array was imaged using a commercial fluorescence scanner.

transferrin [1] = biological target: T2, transferrin (human, UniProt P02787 20-698); assay: peptide microarray with organic prewash, Alexa 555 transferrin with Alexa 647 E. coli lysate; rank by the score of Example 2
T2 construct: also called TRF; pooled human transferrin (Sigma)
T2 sequence (P02787 20-698 limits assumed): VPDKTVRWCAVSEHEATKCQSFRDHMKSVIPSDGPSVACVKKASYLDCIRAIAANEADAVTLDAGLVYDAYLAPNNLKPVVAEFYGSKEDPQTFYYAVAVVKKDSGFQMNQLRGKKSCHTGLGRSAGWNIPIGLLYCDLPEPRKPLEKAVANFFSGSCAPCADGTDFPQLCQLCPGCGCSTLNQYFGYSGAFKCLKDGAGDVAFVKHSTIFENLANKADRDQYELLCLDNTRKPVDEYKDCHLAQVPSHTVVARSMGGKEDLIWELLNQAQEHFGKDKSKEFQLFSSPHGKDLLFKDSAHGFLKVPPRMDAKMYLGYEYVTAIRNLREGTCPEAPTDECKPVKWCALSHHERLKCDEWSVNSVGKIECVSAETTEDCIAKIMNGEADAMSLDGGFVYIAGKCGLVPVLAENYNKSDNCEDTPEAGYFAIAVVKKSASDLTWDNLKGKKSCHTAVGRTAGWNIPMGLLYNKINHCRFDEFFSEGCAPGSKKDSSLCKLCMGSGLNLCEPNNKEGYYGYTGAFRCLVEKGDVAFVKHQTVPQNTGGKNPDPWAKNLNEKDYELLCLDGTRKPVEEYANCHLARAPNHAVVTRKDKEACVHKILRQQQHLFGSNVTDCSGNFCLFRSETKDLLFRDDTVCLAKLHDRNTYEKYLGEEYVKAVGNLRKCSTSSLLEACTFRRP

transferrin [2] = biological target: T2, transferrin; assay: peptide microarray without organic prewash, Alexa 555 transferrin with Alexa 647 E. coli lysate; rank by the score of Example 2
transferrin [3] = biological target: T2, transferrin; assay: SPR (Biacore T100), transferrin immobilised, steady-state response
Description: Flow rates and contact times are adjusted as necessary to provide the surface concentration of target desired for the intended application, and may vary by target. In general, for evaluating whether binding occurs, it is preferable to immobilize a relatively large quantity of target, and higher flow rates and/or longer contact times may be used. For determining kinetics, it is preferable to limit the amount of target immobilized so as to minimize rebinding and avidity effects, and lower flow rates and/or contact times may be used.
Because the off rates for these polypeptides were very high, KD values were estimated by measuring steady-state response for at least five concentrations in a two-fold dilution series, each concentration tested in duplicate. For each experiment, response data were processed using a reference surface to correct for bulk refractive index changes and any non-specific binding. Data were also double referenced using responses from blank running buffer injections. […] Analytes were injected for 60 s at a flow rate of 30 μl/min. The antigen surfaces were regenerated with 30 s consecutive pulses of NaOH/NaCl (50 mM NaOH in 1M NaCl) and Glycine (10 mM glycine-HCl, pH 2.5).

[4] = biological target: T3, Tumor Necrosis Factor-alpha (UniProt P01375 77-233); assay: SPR; reference TNF1 lead peptide
T3 construct: Immobilised on pipette tips or SPR chips (amine coupling or biotin capture); also called TNF-α; TNF-alpha
T3 sequence (P01375 77-233 limits assumed): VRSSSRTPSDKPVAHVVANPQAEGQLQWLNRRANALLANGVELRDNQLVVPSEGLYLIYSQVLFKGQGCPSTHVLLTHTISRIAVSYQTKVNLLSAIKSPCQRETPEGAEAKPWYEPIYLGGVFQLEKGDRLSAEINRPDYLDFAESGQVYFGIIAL
Protocol: (§1) Point-mutant libraries were prepared in 96-well stock plates From the stock plate, peptides were diluted to 50 μM concentration in Biacore HBS-EP buffer (GE Healthcare, Piscataway, N.J.) containing 1 mg/ml carboxymethyl-dextran (Sigma-Aldrich, St. Louis, Mo.) to reduce non-specific binding to the CM-5 SPR chip surface. TNF-αt was captured on a CM-5 chip surface at different capture levels on spots 1, 2, 4, and 5 across all four flow cells corresponding to a 40-200 RU range of predicted Rₘₐₓ binding responses. Spot 3 contained only immobilized neutravidin and served as a reference spot.
(§2) Purified point-mutant affinities were measured on the Biacore A100 using SPR equilibrium binding response across a series of peptide concentrations on an SPR chip with TNF-α captured as described above.

[5] = biological target: T3, Tumor Necrosis Factor-alpha; assay: SPR (Biacore A100), TNF-α captured, equilibrium response over a concentration series
Protocol: as §1, §2

[6] = biological target: T3, Tumor Necrosis Factor-alpha; assay: SPR; reference TNF1 lead peptide; remark: listed apart in the source
Protocol: as §1, §2

[7] = biological target: T3, Tumor Necrosis Factor-alpha; assay: SPR; difference to the TNF1 lead peptide
Protocol: as §1, §2

[8] = biological target: T3, Tumor Necrosis Factor-alpha; assay: SPR (Biacore A100) point-mutant screen at 50 µM peptide
Protocol: as §1
Using the prepared 96-well plates and Biacore A100 SPR instrument, four peptides were flowed separately, in parallel, through the four flow cells over all 4 TNF-α spots and the neutravidin reference spot, with a 60 second association phase and 300 second dissociation phase. SPR sensorgrams were recorded for each peptide response with all 4 TNF-α spots and the neutravidin reference spot across the four flow cells on the SPR chip. Surface regeneration was performed after every 12 injections in each flow cell with Biacore Glycine 2.5 regeneration solution (GE Healthcare, Piscataway, N.J.). Point-mutant reference subtracted, peptide molecular weight adjusted, responses at the late binding region of the sensorgram (a few seconds before dissociation) were compared to the response of the TNF1 lead

[9] = biological target: T3, Tumor Necrosis Factor-alpha; assay: SPR (Biacore A100), TNF-α captured, equilibrium response over a concentration series; remark: listed apart in the source
Protocol: as §1, §2

transferrin [10] = biological target: T2, transferrin; assay: affinity characterisation of Example 29 (SPR; format for the purified peptides not stated)

Fold Enhancement (Gal80): 9.72 fold
Binder: EGEITEGKLSKKGSC [BP2 variant EGEITEGKLSKKGSC]

Fold Enhancement (Gal80): 9.7 fold
B4: BP2 variant EGEKTEGKKSKEGSC (peptide)
peptide: EGEKTEGKKSKEGSC
notes: Synthesised in situ on a light-directed array

Fold Enhancement (Gal80): 10.4 fold
B6: BP2 variant EGEWTEGKKSKIGSC (peptide)
peptide: EGEWTEGKKSKIGSC
notes: as for B4

Fold Enhancement (Gal80): 9.81 fold
B9: BP2 variant EGEKTEGKKSKLGSC (peptide)
peptide: EGEKTEGKKSKLGSC
notes: as for B4

Fold Enhancement (Gal80): 11 fold
B11: BP2 variant EGEWTEGKKSKRGSC (peptide)
peptide: EGEWTEGKKSKRGSC
notes: as for B4

Fold Enhancement (Gal80): 9.91 fold
B13: BP2 variant EGEITEGKKSKSGSC (peptide)
peptide: EGEITEGKKSKSGSC
notes: as for B4

Fold Enhancement (Gal80): 9.24 fold
B15: BP2 variant EGEKTEGKKSKGGSC (peptide)
peptide: EGEKTEGKKSKGGSC
notes: as for B4

Fold Enhancement (Gal80): 8.5 fold
B16: BP2 variant EGEKTEGKKSKTGSC (peptide)
peptide: EGEKTEGKKSKTGSC
notes: as for B4

Fold Enhancement (Gal80): 10.7 fold
B18: BP2 variant EGEWTEGKKSKEGSC (peptide)
peptide: EGEWTEGKKSKEGSC
notes: as for B4

Fold Enhancement (Gal80): 11.1 fold
B20: BP2 variant EGEWTEGKKSKGGSC (peptide)
peptide: EGEWTEGKKSKGGSC
notes: as for B4

Fold Enhancement (Gal80): 10.6 fold
B21: BP2 variant EGEITEGKKSKTGSC (peptide)
peptide: EGEITEGKKSKTGSC
notes: as for B4

Fold Enhancement (Gal80): 10.5 fold
B23: BP2 variant EGEWTEGKKSKTGSC (peptide)
peptide: EGEWTEGKKSKTGSC
notes: as for B4

Fold Enhancement (Gal80): 10.7 fold
B24: BP2 variant EGEWTEGKKSKLGSC (peptide)
peptide: EGEWTEGKKSKLGSC
notes: as for B4

Rank -- prewash (transferrin [1]): 3320 rank
Rank - non-prewash (transferrin [2]): 1290 rank
Binder: LDPLFNTSIMVNWHRWMGSC [TRF27]

Kd (transferrin [3]): ~60 µM
Rank -- prewash (transferrin [1]): 603 rank
Rank - non-prewash (transferrin [2]): 736 rank
Binder: APYAPQQIHYWSTLGFKGSC (20-mer ending GSC) [TRF25]

Kd (transferrin [3]): ~50 µM
Rank -- prewash (transferrin [1]): 958 rank
Rank - non-prewash (transferrin [2]): 71 rank
Binder: SVKPWRPLITGNRWLNSGSC (20-mer ending GSC) [TRF24]

Rank -- prewash (transferrin [1]): 61 rank
Rank - non-prewash (transferrin [2]): 711 rank
Binder: HAYKGPGDMRRFNHSGMGSC (20-mer ending GSC) [TRF22]

Kd (transferrin [3]): ~60 µM
Rank -- prewash (transferrin [1]): 5 rank
Rank - non-prewash (transferrin [2]): 84 rank
Binder: QYHHFMNLKRQGRAQAYGSC (20-mer ending GSC) [TRF21]

Rank -- prewash (transferrin [1]): 289 rank
Rank - non-prewash (transferrin [2]): 18 rank
Binder: GQTQFAMHRFQQWYKIKGSC (20-mer ending GSC) [TRF20]

Kd (transferrin [3]): ~100 µM
Binding ΔG (transferrin [10]): -5.56 kcal/mol
Kd (transferrin [10]): 85 µM
Rank -- prewash (transferrin [1]): 436 rank
Rank - non-prewash (transferrin [2]): 596 rank
B25: TRF26 (peptide)
peptide: AHKVVPQRQIRHAYNRYGSC
notes: 20-mer ending GSC; also called TRF26 Lead Peptide

Kd (transferrin [3]): ~50 µM
Rank -- prewash (transferrin [1]): 2090 rank
Rank - non-prewash (transferrin [2]): 2720 rank
Binder: FRGWAHIFFGPHVIYRGGSC (20-mer ending GSC) [TRF23]

Kd (transferrin [3]): ~150 µM
Rank -- prewash (transferrin [1]): 9600 rank
Rank - non-prewash (transferrin [2]): 5010 rank
B26: TRF19 (peptide)
peptide: KEDNPGYSSEQDYNKLDGSC
notes: 20-mer ending GSC; on arrays attached by the C-terminal Cys

Rank -- prewash (transferrin [1]): 712 rank
Rank - non-prewash (transferrin [2]): 601 rank
Binder: RFQLTQHYAQFWGHYTWGSC (20-mer ending GSC) [TRF28]

The next lines start with the binder.

B1: BP2 variant EGEITEGKGSKKGSC (peptide)
peptide: EGEITEGKGSKKGSC
notes: as for B4
Fold Enhancement (Gal80): 9.87 fold

B2: BP2 variant EGEITEGKKSKLGSC (peptide)
peptide: EGEITEGKKSKLGSC
notes: as for B4
Fold Enhancement (Gal80): 11.1 fold

B3: BP2 variant EGEDTEGKKSKIGSC (peptide)
peptide: EGEDTEGKKSKIGSC
notes: as for B4
Fold Enhancement (Gal80): 10.4 fold

B5: BP2 variant EGEITEGKKSKRGSC (peptide)
peptide: EGEITEGKKSKRGSC
notes: as for B4
Fold Enhancement (Gal80): 10.5 fold

B7: BP2 variant EGEDTEGKKSKGGSC (peptide)
peptide: EGEDTEGKKSKGGSC
notes: as for B4
Fold Enhancement (Gal80): 10.8 fold

B8: BP2 variant EGEITEGKKSKIGSC (peptide)
peptide: EGEITEGKKSKIGSC
notes: as for B4
Fold Enhancement (Gal80): 11.3 fold

B10: BP2 variant EGEDTEGKKSKTGSC (peptide)
peptide: EGEDTEGKKSKTGSC
notes: as for B4
Fold Enhancement (Gal80): 10.2 fold

B12: BP2 variant EGEDTEGKKSKEGSC (peptide)
peptide: EGEDTEGKKSKEGSC
notes: as for B4
Fold Enhancement (Gal80): 10.1 fold

B14: BP2 variant EGEDTEGKKSKRGSC (peptide)
peptide: EGEDTEGKKSKRGSC
notes: as for B4
Fold Enhancement (Gal80): 10.4 fold

B17: BP2 variant EGEITEGKKSKGGSC (peptide)
peptide: EGEITEGKKSKGGSC
notes: as for B4
Fold Enhancement (Gal80): 10.8 fold

B19: BP2 variant EGEDTEGKKSKLGSC (peptide)
peptide: EGEDTEGKKSKLGSC
notes: as for B4
Fold Enhancement (Gal80): 10.4 fold

B22: BP2 variant EGEITEGKKSKEGSC (peptide)
peptide: EGEITEGKKSKEGSC
notes: as for B4
Fold Enhancement (Gal80): 10.9 fold

Binder: FERSYLKMPWSFLQSRQGSC [TNF1 D4S+P5Y+M7K triple mutant]
Kd Fold-Change Relative to Lead [4]: 11 fold
Kd [5]: 14 µM
Observed Binding ΔG [5]: -6.63 kcal/mol

Binder: FERDYLMMPWKFLQSRQGSC [TNF1 P5Y+S11K double mutant]
Kd Fold-Change Relative to Lead [4]: 6.6 fold
Kd [5]: 24 µM
Observed Binding ΔG [5]: -6.63 kcal/mol

Binder: FERDYLKMPWSFLQSRQGSC [TNF1 P5Y+M7K double mutant]
Kd Fold-Change Relative to Lead [4]: 5.8 fold
Kd [5]: 27 µM
Observed Binding ΔG [5]: -6.24 kcal/mol

Binder: FERYPLMMPWSFLQSRQGSC [TNF1 D4Y point-mutant]
Kd Fold-Change Relative to Lead [6]: 3.6 fold
Component Binding ΔG Contribution [7]: -0.74 kcal/mol
fold enhancement in SPR binding response relative to TNF1 [8]: ≥ 15 fold
Binding ΔG [9]: -5.95 kcal/mol
Kd [9]: 44 µM

Binder: FERDPLKMPWSFLQSRQGSC [TNF1 M7K point-mutant]
Kd Fold-Change Relative to Lead [6]: 2.8 fold
Component Binding ΔG Contribution [7]: -0.72 kcal/mol
fold enhancement in SPR binding response relative to TNF1 [8]: ≥ 15 fold
Binding ΔG [9]: -5.93 kcal/mol
Kd [9]: 57 µM

Binder: FERYPLKMPWSFLQSRQGSC [TNF1 D4Y+M7K double mutant]
Kd Fold-Change Relative to Lead [4]: 9.4 fold
Kd [5]: 17 µM
Observed Binding ΔG [5]: -6.54 kcal/mol
